Series [1] deals with the molecule itself. Briefly: MST; RED-tris-NTA labelled protein at 50 nM, unlabelled protein of the same construct titrated from 10 uM (16-step serial dilution), PBS, 15 min at room temperature; Monolith NT.115; oligomerisation, step of the constant not told.
Series [2] deals with the molecule itself. Briefly: AFM imaging; purified protein adsorbed on mica (poly-L-lysine), imaged in liquid, PeakForce Tapping; monomers and oligomers counted by hand.
Series [3] concerns the target T1, NNDP52 (N-terminal truncated region of NDP52, amino acid residues 1-190) (UniProt Q13137 1-190).
T1 chain: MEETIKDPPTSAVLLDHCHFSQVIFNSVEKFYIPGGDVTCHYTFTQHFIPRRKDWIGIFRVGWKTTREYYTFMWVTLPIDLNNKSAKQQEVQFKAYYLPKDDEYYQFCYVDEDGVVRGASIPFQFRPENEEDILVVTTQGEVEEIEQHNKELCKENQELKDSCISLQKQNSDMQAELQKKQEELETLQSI
Briefly: MST.

Series [4] concerns the molecule itself. Briefly: SEC-MALS; 100 ul at 1 mg/ml (NDP52-FL, CoCoA) or 5 mg/ml (NNDP52, CNDP52, ZFs); Superdex 200 (30 x 1 cm); 50 mM Tris pH 7.5, 150 mM NaCl, 1 mM DTT; room temperature. (In general: Size exclusion chromatography separates by hydrodynamic size, large species first.)
The series “MST” deals with the molecule itself. Kind of series: MST.
In a further series the target is T2, CoCoA (Human, UniProt Q9P1Z2 1-691).
T2 sequence: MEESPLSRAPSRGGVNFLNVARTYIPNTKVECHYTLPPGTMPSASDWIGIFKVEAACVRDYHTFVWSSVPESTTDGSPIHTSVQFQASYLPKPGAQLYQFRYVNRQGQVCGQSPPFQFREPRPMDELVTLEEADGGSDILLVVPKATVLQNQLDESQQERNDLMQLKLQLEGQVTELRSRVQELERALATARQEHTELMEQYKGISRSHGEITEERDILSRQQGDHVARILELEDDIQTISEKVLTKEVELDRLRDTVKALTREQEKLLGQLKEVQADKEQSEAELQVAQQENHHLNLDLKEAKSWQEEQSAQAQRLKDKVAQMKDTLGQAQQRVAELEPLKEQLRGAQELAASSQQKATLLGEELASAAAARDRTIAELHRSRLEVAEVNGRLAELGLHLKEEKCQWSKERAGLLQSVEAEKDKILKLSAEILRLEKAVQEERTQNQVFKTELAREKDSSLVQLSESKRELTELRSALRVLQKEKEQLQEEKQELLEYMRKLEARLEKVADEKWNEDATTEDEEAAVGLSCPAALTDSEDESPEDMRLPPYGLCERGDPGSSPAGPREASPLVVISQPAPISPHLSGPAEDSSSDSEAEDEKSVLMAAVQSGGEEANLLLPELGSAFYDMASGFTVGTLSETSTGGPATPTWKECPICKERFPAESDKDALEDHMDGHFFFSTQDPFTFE
Briefly: fluorescence titration; high affinity; Fluorescence: 100 nM DNA, 50 mM Tris-HCl pH 7.5, 150 mM NaCl, 1 mM DTT; EMSA: 50 mM Tris-HCl pH 7.5, 50 mM NaCl, 3 mM MgCl2, 5 min; temperature not stated. Particulars: protein: recombinant, tags: His-tag (pET151), chain copies: 2, blunt. For orientation: In EMSA bound probe runs differently from free probe, usually more slowly.

Series [5] concerns the target T3, NDP52-FL (Human, UniProt Q13137 1-446).
T3 sequence: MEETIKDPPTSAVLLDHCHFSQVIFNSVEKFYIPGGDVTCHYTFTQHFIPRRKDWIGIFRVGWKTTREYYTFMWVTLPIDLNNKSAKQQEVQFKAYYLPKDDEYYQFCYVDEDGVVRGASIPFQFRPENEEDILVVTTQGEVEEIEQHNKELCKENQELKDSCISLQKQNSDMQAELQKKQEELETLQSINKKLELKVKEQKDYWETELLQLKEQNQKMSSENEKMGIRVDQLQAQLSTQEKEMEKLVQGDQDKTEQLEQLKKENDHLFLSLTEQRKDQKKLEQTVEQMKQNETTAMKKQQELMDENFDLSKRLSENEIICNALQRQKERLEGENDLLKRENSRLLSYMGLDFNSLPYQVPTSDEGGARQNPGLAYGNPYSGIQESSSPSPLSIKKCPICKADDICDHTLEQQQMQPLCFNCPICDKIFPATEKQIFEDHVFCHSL
Kind of series: fluorescence titration; Fluorescence: 100 nM DNA, 50 mM Tris-HCl pH 7.5, 150 mM NaCl, 1 mM DTT; EMSA: 50 mM Tris-HCl pH 7.5, 50 mM NaCl, 3 mM MgCl2, 5 min; temperature not stated. Conditions: protein: recombinant, tags: His-tag (pET151), chain copies: 2, blunt.

The target in series [6] is T4, NDP52-FL (full-length NDP52/CALCOCO2), Q13137.
T4 chain: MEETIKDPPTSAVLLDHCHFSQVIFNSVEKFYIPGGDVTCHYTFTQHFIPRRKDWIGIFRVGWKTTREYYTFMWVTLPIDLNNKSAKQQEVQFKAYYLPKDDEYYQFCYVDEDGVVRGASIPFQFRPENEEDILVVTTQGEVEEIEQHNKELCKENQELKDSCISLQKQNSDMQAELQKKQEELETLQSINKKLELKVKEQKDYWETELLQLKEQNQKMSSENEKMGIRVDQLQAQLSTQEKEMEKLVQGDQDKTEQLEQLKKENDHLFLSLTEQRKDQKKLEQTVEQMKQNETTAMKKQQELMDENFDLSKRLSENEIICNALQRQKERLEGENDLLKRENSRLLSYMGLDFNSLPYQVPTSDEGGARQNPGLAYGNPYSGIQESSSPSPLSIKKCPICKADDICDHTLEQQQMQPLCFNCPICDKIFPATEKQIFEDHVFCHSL
Briefly: SEC-MALS; 100 ul at 1 mg/ml (NDP52-FL, CoCoA) or 5 mg/ml (NNDP52, CNDP52, ZFs); Superdex 200 (30 x 1 cm); 50 mM Tris pH 7.5, 150 mM NaCl, 1 mM DTT; room temperature. Particulars: remark: other sources report otherwise.

Series [7] has as its target T4, NDP52-FL (full-length NDP52/CALCOCO2), …. Briefly: mass photometry; NDP52-FL alone, 50 mM Tris-HCl pH 7.5, 150 mM NaCl, OneMP mass photometer; results say 100 nM, methods say diluted to 10 nM. Conditions: remark: other sources report otherwise.
Series [8] has the same target. Kind of series: AFM imaging; purified protein adsorbed on mica (poly-L-lysine), imaged in liquid, PeakForce Tapping; monomers and oligomers counted by hand. Conditions: remark: other sources report otherwise.
Series [9] shares this target. Kind of series: MST; RED-tris-NTA labelled protein at 50 nM, unlabelled protein of the same construct titrated from 10 uM (16-step serial dilution), PBS, 15 min at room temperature; Monolith NT.115; oligomerisation, step of the constant not told. Conditions: remark: other sources report otherwise.
In series [10] the target is T3, NDP52-FL. Kind of series: fluorescence titration, competition; with and without ss40 competitor; Fluorescence: 100 nM DNA, 50 mM Tris-HCl pH 7.5, 150 mM NaCl, 1 mM DTT; EMSA: 50 mM Tris-HCl pH 7.5, 50 mM NaCl, 3 mM MgCl2, 5 min; temperature not stated. Particulars: protein: recombinant; tags: His-tag (pET151); chain copies: 2; label: 3' FAM (called FITC in Methods) on strand 1 for fluorescence; blunt.

Setting [11] is: label: 3' FAM (called FITC in Methods) on strand 1.
[12] abbreviates: label: 3' FAM (called FITC in Methods) on strand 1 for fluorescence.

“And” between values parts separate entries of the source, which are not always exact repeats. Identical values can stand only once.

B1: CNDP52 (C-terminal region of NDP52, amino acid residues 365-446) (domain or fragment, UniProt Q13137 365-446, looked up)
chain: EGGARQNPGLAYGNPYSGIQESSSPSPLSIKKCPICKADDICDHTLEQQQMQPLCFNCPICDKIFPATEKQIFEDHVFCHSL
notes: NDP52/CALCOCO2, a section of the coiled-coil and both zinc finger domains, amino acid residues 365-446; source: E. coli BL21 DE3, purified (HisTrap FF, Superdex 200 SEC)
For the molecule B1, the values for the equilibrium dissociation constant (Kd) in [1] and in [3] were 50 ± 6 nM and 110 nM, respectively. The “stoichiometry N” value came to 2 in series [2] and 3 in series [4].

B2: NNDP52 (N-terminal truncated region of NDP52, amino acid residues 1-190) (domain or fragment, UniProt Q13137 1-190, looked up)
chain: MEETIKDPPTSAVLLDHCHFSQVIFNSVEKFYIPGGDVTCHYTFTQHFIPRRKDWIGIFRVGWKTTREYYTFMWVTLPIDLNNKSAKQQEVQFKAYYLPKDDEYYQFCYVDEDGVVRGASIPFQFRPENEEDILVVTTQGEVEEIEQHNKELCKENQELKDSCISLQKQNSDMQAELQKKQEELETLQSI
notes: NDP52/CALCOCO2, SKICH domain and part of the coiled-coil region, amino acid residues 1-190; also called N-terminal region of NDP52; source: E. coli BL21 DE3, purified (HisTrap FF, Superdex 200 SEC)
B2: in the series “MST”, the Kd was determined as 170 nM. Also, in series [4], the “stoichiometry N” value turned out to be 2.

B3: ds15 (dsDNA)
DNA 1: TTAGTTGTTCTCTGG
DNA 2: CCAGAGAACAACTAA
Consider B3, for which, in the series with CoCoA (setting [11]), the binding result is given as “binds”. Besides, in the series with NDP52-FL [5] (setting [11]), the Kd was < 100 nM.

B4: CoCoA (recombinant) (natural protein, UniProt Q9P1Z2 1-691, looked up)
chain: MEESPLSRAPSRGGVNFLNVARTYIPNTKVECHYTLPPGTMPSASDWIGIFKVEAACVRDYHTFVWSSVPESTTDGSPIHTSVQFQASYLPKPGAQLYQFRYVNRQGQVCGQSPPFQFREPRPMDELVTLEEADGGSDILLVVPKATVLQNQLDESQQERNDLMQLKLQLEGQVTELRSRVQELERALATARQEHTELMEQYKGISRSHGEITEERDILSRQQGDHVARILELEDDIQTISEKVLTKEVELDRLRDTVKALTREQEKLLGQLKEVQADKEQSEAELQVAQQENHHLNLDLKEAKSWQEEQSAQAQRLKDKVAQMKDTLGQAQQRVAELEPLKEQLRGAQELAASSQQKATLLGEELASAAAARDRTIAELHRSRLEVAEVNGRLAELGLHLKEEKCQWSKERAGLLQSVEAEKDKILKLSAEILRLEKAVQEERTQNQVFKTELAREKDSSLVQLSESKRELTELRSALRVLQKEKEQLQEEKQELLEYMRKLEARLEKVADEKWNEDATTEDEEAAVGLSCPAALTDSEDESPEDMRLPPYGLCERGDPGSSPAGPREASPLVVISQPAPISPHLSGPAEDSSSDSEAEDEKSVLMAAVQSGGEEANLLLPELGSAFYDMASGFTVGTLSETSTGGPATPTWKECPICKERFPAESDKDALEDHMDGHFFFSTQDPFTFE
notes: CoCoA, member of the CALCOCO family, recombinant; source: E. coli BL21 DE3, purified (HisTrap FF, Superdex 200 SEC)
For the molecule B4, the Kd in series [1] worked out at 85 nM. Besides, the “stoichiometry N” value in [4] amounted to 2.

B5: ZFs (the two zinc finger domains of NDP52, amino acid residues 380-446) (domain or fragment, UniProt Q13137 380-446, looked up)
chain: YSGIQESSSPSPLSIKKCPICKADDICDHTLEQQQMQPLCFNCPICDKIFPATEKQIFEDHVFCHSL
notes: NDP52/CALCOCO2, zinc finger domains ZF1 and ZF2, amino acid residues 380-446; also called ZFs domain; source: E. coli BL21 DE3, purified (HisTrap FF, Superdex 200 SEC)
B5 returned a Kd in [1] of 180 ± 17 nM. For the same molecule, the “stoichiometry N” value in series [4] is 2 and 3.

B6: NDP52-FL (full-length NDP52/CALCOCO2), Q13137 1-446 (natural protein)
chain: MEETIKDPPTSAVLLDHCHFSQVIFNSVEKFYIPGGDVTCHYTFTQHFIPRRKDWIGIFRVGWKTTREYYTFMWVTLPIDLNNKSAKQQEVQFKAYYLPKDDEYYQFCYVDEDGVVRGASIPFQFRPENEEDILVVTTQGEVEEIEQHNKELCKENQELKDSCISLQKQNSDMQAELQKKQEELETLQSINKKLELKVKEQKDYWETELLQLKEQNQKMSSENEKMGIRVDQLQAQLSTQEKEMEKLVQGDQDKTEQLEQLKKENDHLFLSLTEQRKDQKKLEQTVEQMKQNETTAMKKQQELMDENFDLSKRLSENEIICNALQRQKERLEGENDLLKRENSRLLSYMGLDFNSLPYQVPTSDEGGARQNPGLAYGNPYSGIQESSSPSPLSIKKCPICKADDICDHTLEQQQMQPLCFNCPICDKIFPATEKQIFEDHVFCHSL
Turning to B6, the stoichiometry N in series [6] is 2 and 3 and 4; in [7] it was 2 and 3; in series [8] it was 2. The percent of molecules in an oligomeric state in series [8] is 15%. For the same molecule, the Kd in [9] was 210 nM.

B7: ds40 (dsDNA)
DNA 1: TTAGTTGTTCGTAGTGCTCGTCTGGCTCTGGATTACCCGC
DNA 2: GCGGGTAATCCAGAGCCAGACGAGCACTACGAACAACTAA
Regarding B7, the binding result with CoCoA (setting [12]) is “binds”. The Kd with NDP52-FL [5] (setting [12]) and with NDP52-FL [10] was < 100 nM in each case.

By Kd is commonly meant the constant that tells how readily two partners part at equilibrium. What is called stoichiometry N is a count of units in the complex or per binding partner.

The values are drawn from PMC10195817, “Autophagy receptor NDP52 alters DNA conformation to modulate RNA polymerase II transcription” (Nature Communications, 2022).
